Where a chain is given by its changes, count along the chain named.

Data on 31 molecules can be found in article PMC5522039, “Non-invasive assessment of murine PD-L1 levels in syngeneic tumor models by nuclear imaging with nanobody tracers” (Oncotarget, 2017).

Sequences and labels used below:
B1: Nb C3 (purified, C-terminal His6 tag) (VHH)
VHH: QVQLQESGGGLVQTGGSLRLSCAASGSTVSSSMMAWWRQTPGNQRELVALVASGNNTNYVDSVKGRFTVSRDNAKNTMYLQMNSLKPEDTAVYYCRILSVNGIWYWGQGTQVTVSS
notes: source: E. coli (pHEN6), purified; not shown: His6, C-terminal, kept
B2: Nb C7 (HA-tagged, in periplasmic extract) (VHH)
VHH: QVQLQESGGGSVQAGESLTLSCTASGSSLSHKSVGWWRQTPGNQRELVALVASGNNTNYVDSVKGRFTVSRDNAKNTMYLQMNSLKPEDTAVYYCRILSVNGIWYWGQGTQVTVSS
notes: source: E. coli WK6 (pHEN4), crude periplasmic extract
B3: Nb I1 (HA-tagged, in periplasmic extract) (VHH)
VHH: QVQLQESGGGLVQAGGSLRLSCAASGRTFRRYDMGWFRQAPGKEREFVAASTWSADDTYYAGSVKGRFTISRDNAKNTVYLQMNSLKPEDTAVYYCAAGETRKYGFRTTEGYYDSWGQGTQVTVSS
notes: as for B2
B4: Nb L1 (HA-tagged, in periplasmic extract) (VHH)
VHH: VQAGGSLRLSCAASGYRYCRYDMSWYRQAPGKEREFVSAIDSYGSPTYADTVLGRFTISRDNAKNTVYLQMNSLKAEDTAMYYCKIDSTGWSSRCGKTYWGQGTQVTVSS
notes: as for B2
B5: Nb M1 (HA-tagged, in periplasmic extract) (VHH)
VHH: VQAGDSLRLACTLFKYPTNNLCLAWFRQAPGKEREGVAALNTDGVGTYYAKSVEGRFTISQDKSKNEGYLQMDNLKPEDTAIYYCAADPTSRCNNYVQGRWWHEIGSRVWDWGQGTQVTVSS
notes: as for B2
B6: Nb D1 (HA-tagged, in periplasmic extract) (VHH)
VHH: QVQLQESGGGLVQAGGSLRLSCAASGITVSINAMAWYRQPPGKQRELVALIIGGSTRYADSVKGRFTISRDNAKNTVYLQMNSLKPEDTAVYACNTRAYWGQGTQVTVSS
notes: as for B2
B7: Nb G5 (HA-tagged, in periplasmic extract) (VHH)
VHH: QVQLQESGGGLVQPGGSLRLSCAASGSFFRTYIVSWYRQAPGKRREAVAVMSNSGNTNYADSVKGRFTISRDNAVNTVYLQMNSLKPEDTAVYYCNLLKVTVPPANYWGQGTQVTVSS
notes: as for B2
B8: Nb G7 (HA-tagged, in periplasmic extract) (VHH)
VHH: B7 VHH with P14S
notes: as for B2
B9: Nb G6 (HA-tagged, in periplasmic extract) (VHH)
VHH: B7 VHH with G16E, A23V
notes: as for B2
B10: Nb G1 (HA-tagged, in periplasmic extract) (VHH)
VHH: QVQLQESGGGLVQPGGSLRLSCAASGSISSFNFMGWYRQAPGKQRELVALSTNSGVTNVAGSVKGRFTISRDNAKTTVYLQMNSLKPEDTAVYYCRVGAMGNLYWGQGTQVTVSS
notes: as for B2
B11: Nb G3 (HA-tagged, in periplasmic extract) (VHH)
VHH: B10 VHH with P14T
notes: as for B2
B12: Nb G4 (HA-tagged, in periplasmic extract) (VHH)
VHH: B10 VHH with P14A
notes: as for B2
B13: Nb G2 (HA-tagged, in periplasmic extract) (VHH)
VHH: B10 VHH with A23V
notes: as for B2
B14: Nb C4 (HA-tagged, in periplasmic extract) (VHH)
VHH: QVQLQESGGGLVQPGGSLRLSCAASGSTVSSSMMAWWRQTPGNQRELVALVASGNNTNYVDSVKGRFTVSRDNAKNTMYLQMNGLKPEDTAVYYCRLSVNGIWYWGQGTQVTVSS
notes: as for B2
B15: Nb C15 (HA-tagged, in periplasmic extract) (VHH)
VHH: QVQLQESGGGLVQTGGSLRVSCAVSGSTVSRSTMAWWRQTPGNQRELVALVDSGGKSNYVDSVKGRFTISTDNAKNTMYLQMNSLKPEDTAVYYCRILSVQGIWYWGQGTQVTVSS
notes: as for B2
B16: Nb C16 (HA-tagged, in periplasmic extract) (VHH)
VHH: B15 VHH with T14A, R19K, R31S, Q101K
notes: as for B2
B17: Nb E1 (HA-tagged, in periplasmic extract) (VHH)
VHH: QVQLQESGGGLVQAGGSLRLSCATSGSIFSIISMGWYRQAPGKQRELVALVFRGGSTVYADSVKGRFTISGDIAKNTVYLQMDSLKPEDTAVYYCNVKSIGTAQYWGQGTQVTVSS
notes: as for B2
B18: Nb E6 (HA-tagged, in periplasmic extract) (VHH)
VHH: B17 VHH with N76S, V97A, S99P
notes: as for B2
B19: Nb E5 (HA-tagged, in periplasmic extract) (VHH)
VHH: B17 VHH with A14P, N76S, V97A, S99P
notes: as for B2
B20: Nb E2 (HA-tagged, in periplasmic extract) (VHH)
VHH: B17 VHH with V112I
notes: as for B2
B21: Nb C6 (HA-tagged, in periplasmic extract) (VHH)
VHH: B1 VHH with T14A, G16D
notes: as for B2
B22: Nb C12 (HA-tagged, in periplasmic extract) (VHH)
VHH: B1 VHH with M33T, N55G, P87A
notes: as for B2
B23: Nb C13 (HA-tagged, in periplasmic extract) (VHH)
VHH: B1 VHH with M33T, W37Y, E46D, A52G, N55G, T57I, R71I
notes: as for B2
B24: Nb C1 (HA-tagged, in periplasmic extract) (VHH)
VHH: B1 VHH with S53R
notes: as for B2
B25: Nb C9 (HA-tagged, in periplasmic extract) (VHH)
VHH: B1 VHH with T14A, G16E, A24G, M33T, N55G, V100M
notes: as for B2
B26: Nb C14 (HA-tagged, in periplasmic extract) (VHH)
VHH: B1 VHH with S30G, M33T, A52G, S53L, N55G, R71I, K75E, P87F
notes: as for B2
B27: Nb C3 (HA-tagged, in periplasmic extract) (VHH)
VHH: B1 VHH
notes: as for B2
B28: Nb C11 (HA-tagged, in periplasmic extract) (VHH)
VHH: B1 VHH with M33T, N55G
notes: as for B2
B29: Nb C10 (HA-tagged, in periplasmic extract) (VHH)
VHH: B1 VHH with M33T, N55G, V100M
notes: as for B2
B30: Nb B1 (HA-tagged, in periplasmic extract) (VHH)
VHH: QVQLQESGGGLVHPGGSLRLSCAASGFSLDNYAIGWFRQAPGKEREGVSCISSGSEGRRYYADFVKGRFTISRDNAKNTAFLQMNSLKPEDTADYYCATVGFCSSQYGMEFVGDYWGQGTQVTVSS
notes: as for B2
B31: Nb A1 (HA-tagged, in periplasmic extract) (VHH)
VHH: QVQLQESGGGLVQPGGSLRLSCAASGFTLDYYAIGWFRQAPGKEREGVSCISSSDGSTYYADSVKGRFTISRDNAKNTVYLQMSSLKPEDTAVYYCGISGSCLLEDYGMDYWGKGTQVTVSS
notes: as for B2

T2 sequence (Q9EP73 19-239): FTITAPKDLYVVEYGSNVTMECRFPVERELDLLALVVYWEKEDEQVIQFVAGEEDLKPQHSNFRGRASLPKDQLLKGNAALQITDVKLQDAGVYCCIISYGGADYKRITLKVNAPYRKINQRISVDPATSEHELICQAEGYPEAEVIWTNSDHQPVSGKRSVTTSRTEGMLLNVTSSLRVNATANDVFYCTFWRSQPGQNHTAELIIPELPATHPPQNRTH
T3 sequence (Q9NZQ7 19-238): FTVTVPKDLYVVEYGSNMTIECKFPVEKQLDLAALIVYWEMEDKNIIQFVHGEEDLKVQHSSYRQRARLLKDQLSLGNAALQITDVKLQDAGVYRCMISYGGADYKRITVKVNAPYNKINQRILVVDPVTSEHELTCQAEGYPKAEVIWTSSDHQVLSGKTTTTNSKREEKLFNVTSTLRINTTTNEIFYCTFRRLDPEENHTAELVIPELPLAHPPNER

In one assay the target is T1, His-tagged recombinant human PD-L1 protein (Sino Biological #10084-H08H) (Homo sapiens, UniProt Q9NZQ7).
T1 construct: programmed death-ligand 1 (PD-L1, B7-H1, CD274), human; also called huPD-L1; source: bought: Sino Biological (#10084-H08H)
T1 sequence (Q9NZQ7 19-238): as above
Put plainly: SPR; Biacore T200, 25°C, HBS (0.01 M HEPES pH 7.4, 0.15 M NaCl, 3 mM EDTA, 0.005% Tween 20); His-tagged recombinant human PD-L1 amine-coupled on a CM5 chip (650-900 RU); purified Nb as analyte, 9 dilutions (0.15-1000 nM), 120 s association, 160 s dissociation; 1-to-1 fit; n = 1. To be noted: both partners purified. Background: In SPR one partner is held on a chip, and binding of the other changes the refractive index at the surface.
Consider B1, for which the Kd was 170 nM.

The next assay has as its target T2, Mouse PD-L1 Fc-fusion protein (R&D Systems, 1019-B7) (Mus musculus, UniProt Q9EP73).
T2 construct: programmed death-ligand 1 (PD-L1, B7-H1, CD274), mouse; also called moPD-L1; B7-H1; source: bought: R&D Systems (1019-B7)
Nature of the assay: SPR; Biacore T200, 25°C, HBS (0.01 M HEPES pH 7.4, 0.15 M NaCl, 3 mM EDTA, 0.005% Tween 20); mouse or human PD-L1 Fc-fusion protein amine-coupled on a CM5 chip (650-900 RU); Nb in crude periplasmic extract as analyte, its concentration estimated by CFCA; 9 dilutions, 120 s association, 160 s dissociation; 1-to-1 fit; affinity estimations. The note with it: one partner purified.
As to B2, the equilibrium dissociation constant (Kd) was 3.1 nM. For B3, the Kd was 67 nM. For the molecule B4, the Kd was 15 nM.

As to B5, the equilibrium dissociation constant (Kd) is 13 nM. Still for that read-out and setting: under B6 stands 12 nM. The same measure, in the same setting: under B7 stands 3.9 nM; under B8, 3.4 nM. Turning to B9, the Kd was 5 nM. For B10, the Kd was 4.4 nM.

For the molecule B11, the Kd is 5 nM.

In the case of B12, the dissociation constant Kd was 6.2 nM. Same read-out and setting: under B13 stands 5.5 nM.

Take B14: the dissociation constant (Kd) is 0.187 nM. As to B15, the Kd is 6.5 nM.

In the case of B16, the Kd was 15 nM. Same read-out and setting: under B17 stands 2.3 nM; under B18, 6.9 nM; under B19, 14 nM. Take B20: the dissociation constant Kd is 5.6 nM. On to B21, for which the Kd is 0.289 nM. Still for that read-out and setting: under B22 stands 11.4 nM. Same read-out and setting: under B23 stands 33 nM; under B24, 0.327 nM. The same measure, in the same setting: under B25 stands 2.2 nM; under B26, 1.8 nM; under B27, 0.14 nM.

Regarding B28, the dissociation constant Kd was 12 nM. For the molecule B29, the Kd was 6.7 nM. Still for that read-out and setting: as for B30, the figure is 123 nM.

The next assay addresses T3, Human PD-L1 Fc-fusion protein (R&D Systems, 156-B7) (Homo sapiens, UniProt Q9NZQ7).
T3 construct: programmed death-ligand 1 (PD-L1, B7-H1, CD274), human; also called huPD-L1; B7-H1; source: bought: R&D Systems (156-B7)
The assay is described as above. The note with it: one partner purified.
As to B2, the Kd was 27 nM. On the same count and under the same terms, under B3 stands 322 nM; under B4, 34 nM. On the same count and under the same terms, as for B5, the figure is 17 nM; as for B31, 23 nM. On the same count and under the same terms, as for B6, the figure is 291 nM; as for B7, 16 nM. Take B8: the Kd was 129 nM. Regarding B9, the Kd is 21 nM.

In the case of B10, the dissociation constant (Kd) is 50 nM. The same measure, in the same setting: as for B11, the figure is 907 nM. Still for that read-out and setting: under B12 stands 74 nM; under B13, 158 nM. As for B14, the Kd was 342 nM. Take B15: the Kd is 335 nM. Turning to B16, the Kd was 520 nM. On the same count and under the same terms, under B17 stands 12 nM; under B18, 217 nM. On the same count and under the same terms, as for B19, the figure is 54 nM; as for B20, 94 nM; as for B21, 94 nM. For the molecule B22, the equilibrium dissociation constant (Kd) was 181 nM. The same measure, in the same setting: under B23 stands 162 nM; under B24, 143 nM; under B25, 44 nM. For the molecule B26, the Kd was 71 nM. As to B27, the Kd was 32 nM.

For the molecule B28, the equilibrium dissociation constant (Kd) is 246 nM. Still for that read-out and setting: under B29 stands 141 nM; under B30, 6 nM.

For orientation: Kd means the constant that tells how readily two partners part at equilibrium.
